The target in experiment [1] is importin α7 (UniProt O60684). Nature of the experiment: fluorescence polarisation.
The target of experiment [2] is importin α7 (UniProt O60684). Briefly: fluorescence polarisation. The source holds these as a separate data set. (In general: Fluorescence polarisation rises when a labelled molecule tumbles more slowly, as on binding a larger partner.)

Where two headings read alike, the source gives them in different places.

On to “wild type LANS (Light Activated Nuclear Shuttle) (from UniProt O49003 404-546) (designed binder)”, for which the Kd was found to be 30.4 µM in the experiment with importin α7 [1] and 1300 nM in the experiment with importin α7 [2].

As usually defined, the Kd is the free concentration of one partner at which half of the binding sites on the other are occupied at equilibrium, for simple one-to-one binding. Lower therefore signals tighter binding.
